Source: patent US10227388B2, “Peptides and combination of peptides for use in immunotherapy against non-small cell lung cancer and other cancers” (immatics biotechnologies GmbH, priority 2015, dated 2019)

biological target: HLA-A*02:01 (Homo sapiens, UniProt P04439, D140Y/D185E/D98H/E176V/E277Q/G131W/G231S/I119V/I121R/I166T/I218V/L300P/L318F/N151K/N90K/P208A/P217A/Q86G/Q94H/R138H/R169H/T345S); test: MHC binding assay (UV-ligand exchange, ELISA, peptide exchange yield); settings: binding of HLA-class I restricted peptides to HLA-A*02:01
Text: Candidate peptides for T cell based therapies according to the present invention were further tested for their MHC binding capacity (affinity). The individual peptide-MHC complexes were produced by UV-ligand exchange, where a UV-sensitive peptide is cleaved upon UV-irradiation, and exchanged with the peptide of interest as analyzed. Only peptide candidates that can effectively bind and stabilize the peptide-receptive MHC molecules prevent dissociation of the MHC complexes. To determine the yield of the exchange reaction, an ELISA was performed based on the detection of the light chain ([…]) of stabilized MHC complexes. The assay was performed as generally described in Rodenko et al. (Rodenko et al., 2006).
96 well MAXISorp plates (NUNC) were coated over night with 2-ug/ml streptavidin in PBS at room temperature, washed 4× and blocked for 1 h at 37° C. in 2% BSA containing blocking buffer. […] Peptide-MHC monomers of the UV-exchange reaction were diluted 100 fold in blocking buffer. Samples were incubated for 1 h at 37° C., washed four times, incubated with 2-ug/ml HRP conjugated anti-β2m for 1 h at 37° C., washed again and detected with TMB solution that is stopped with […]. Absorption was measured at 450 nm. Candidate peptides that show a high exchange yield (preferably higher than 50%, most preferred higher than 75%) are generally preferred for a generation and production of antibodies or fragments thereof, and/or T cell receptors or fragments thereof, as they show sufficient avidity to the MHC molecules and prevent dissociation of the MHC complexes.

| Substance | Peptide exchange (MHC class I binding score, peptide exchange yield) |
| --- | --- |
| 140 (YMDAPKAAL; listed as Homo sapiens) [compound 140] | ″++″ (≥20% = ++) |
| 142 (FLFATPVFI; listed as Homo sapiens) [compound 142] | ″+++″ (≥50% = +++) |
| 144 (YIMEPSIFNTL; listed as Homo sapiens) [compound 144] | ″+++″ (≥50% = +++) |
| 145 (FLATSGTLAGI; listed as Homo sapiens) [compound 145] | ″++″ (≥20% = ++) |
| 146 (SLATAGDGLIEL; listed as Homo sapiens) [compound 146] | ″++″ (≥20% = ++) |
| 147 (SLLEAVSFL; listed as Homo sapiens) [compound 147] | ″+++″ (≥50% = +++) |
| 148 (ALNPEIVSV; listed as Homo sapiens) [compound 148] | ″++″ (≥20% = ++) |
| 149 (NLLELFVQL; listed as Homo sapiens) [compound 149] | ″+++″ (≥50% = +++) |
| 151 (KILQQLVTL; listed as Homo sapiens) [compound 151] | ″+++″ (≥50% = +++) |
| 152 (ILFEDIFDV; listed as Homo sapiens) [compound 152] | ″+++″ (≥50% = +++) |
| 153 (FLIANVLYL; listed as Homo sapiens) [compound 153] | ″+″ (≥10% = +) |
| 154 (ALDDGTPAL; listed as Homo sapiens) [compound 154] | ″++″ (≥20% = ++) |
| 155 (RVANLHFPSV; listed as Homo sapiens) [compound 155] | ″+++″ (≥50% = +++) |
| 157 (SLNDEVPEV; listed as Homo sapiens) [compound 157] | ″++″ (≥20% = ++) |
| 158 (KLFDVDEDGYI; listed as Homo sapiens) [compound 158] | ″+++″ (≥50% = +++) |
| 159 (GLVGNPLPSV; listed as Homo sapiens) [compound 159] | ″++++″ (≥75% = ++++) |
| 160 (FLFDEEIEQI; listed as Homo sapiens) [compound 160] | ″+++″ (≥50% = +++) |
| 161 (ALLEGVNTV; listed as Homo sapiens) [compound 161] | ″+++″ (≥50% = +++) |
| 162 (YQQAQVPSV; listed as Homo sapiens) [compound 162] | ″+++″ (≥50% = +++) |
| 163 (ALDEMGDLLQL; listed as Homo sapiens) [compound 163] | ″+++″ (≥50% = +++) |
| 164 (ALLPQPKNLTV; listed as Homo sapiens) [compound 164] | ″+++″ (≥50% = +++) |
| 165 (SLLDEIRAV; listed as Homo sapiens) [compound 165] | ″+++″ (≥50% = +++) |
| 166 (YLNHLEPPV; listed as Homo sapiens) [compound 166] | ″+++″ (≥50% = +++) |
| 167 (KVLEVTEEFGV; listed as Homo sapiens) [compound 167] | ″+++″ (≥50% = +++) |
| 168 (KILDADIQL; listed as Homo sapiens) [compound 168] | ″++++″ (≥75% = ++++) |
| 169 (NLPEYLPFV; listed as Homo sapiens) [compound 169] | ″+++″ (≥50% = +++) |
| 170 (RLQETLSAA; listed as Homo sapiens) [compound 170] | ″+++″ (≥50% = +++) |
| 171 (LLLPLQILL; listed as Homo sapiens) [compound 171] | ″+++″ (≥50% = +++) |
| 172 (VLYSYTIITV; listed as Homo sapiens) [compound 172] | ″++″ (≥20% = ++) |
| 173 (LLDSASAGLYL; listed as Homo sapiens) [compound 173] | ″+++″ (≥50% = +++) |

Now from value to substance:

| Peptide exchange (MHC class I binding score, peptide exchange yield) | Substance |
| --- | --- |
| ″+++″ (≥50% = +++) | 174 (ALAQYLITA; listed as Homo sapiens) [compound 174] |
| ″+++″ (≥50% = +++) | 175 (YLFENISQL; listed as Homo sapiens) [compound 175] |
| ″++″ (≥20% = ++) | 176 (YLMEGSYNKVFL; listed as Homo sapiens) [compound 176] |
| ″++++″ (≥75% = ++++) | 177 (YLLPEEYTSTL; listed as Homo sapiens) [compound 177] |
| ″++++″ (≥75% = ++++) | 178 (ALTEIAFVV; listed as Homo sapiens) [compound 178] |
| ″+++″ (≥50% = +++) | 179 (KVLNELYTV; listed as Homo sapiens) [compound 179] |
| ″++″ (≥20% = ++) | 180 (FQIDPHSGLVTV; listed as Homo sapiens) [compound 180] |
| ″+++″ (≥50% = +++) | 181 (LLWAGTAFQV; listed as Homo sapiens) [compound 181] |
| ″+++″ (≥50% = +++) | 182 (MLLEAPGIFL; listed as Homo sapiens) [compound 182] |
| ″+++″ (≥50% = +++) | 183 (FGLDLVTEL; listed as Homo sapiens) [compound 183] |
| ″+++″ (≥50% = +++) | 184 (YLMDINGKMWL; listed as Homo sapiens) [compound 184] |
| ″++″ (≥20% = ++) | 185 (FLIDDKGYTL; listed as Homo sapiens) [compound 185] |
| ″++″ (≥20% = ++) | 186 (TLFFQQNAL; listed as Homo sapiens) [compound 186] |
| ″+++″ (≥50% = +++) | 187 (RQISIRGIVGV; listed as Homo sapiens) [compound 187] |
| ″+++″ (≥50% = +++) | 188 (GLFPVTPEAV; listed as Homo sapiens) [compound 188] |
| ″+++″ (≥50% = +++) | 189 (ALQRKLPYV; listed as Homo sapiens) [compound 189] |
| ″+++″ (≥50% = +++) | 190 (FLSSLTETI; listed as Homo sapiens) [compound 190] |
| ″++″ (≥20% = ++) | 191 (LLQEGQALEYV; listed as Homo sapiens) [compound 191] |
| ″+++″ (≥50% = +++) | 192 (KMLDGASFTL; listed as Homo sapiens) [compound 192] |
| ″+++″ (≥50% = +++) | 193 (QLLDADGFLNV; listed as Homo sapiens) [compound 193] |
